Assay results reported in patent publication US20070089183.
Residue numbers refer to the chain shown, from its start. In names and notes the source's numbering stands.

Molecular target: CaM (endogenous calmodulin of Arabidopsis plants)

B1: DWF1(V531D), full length, expressed in planta from 35S::DWF1(V531D) (protein)
chain: MSDLQTPLVRPKRKKTWVDYFVKFRWIIVIFIVLPFSATFYFLIYLGDMWSESKSFEKRQKEHDENVKKVIKRLKGRDASKDGLVCTARKPWIAVGMRNVDYKRARHFEVDLGEFRNILEINKEKMTARVEPLVNMGQISRATVPMNLSLAVVAELDDLTVGGLINGYGIEGSSHIYGLFADTVEAYEIVLAGGELVRATRDNEYSDLYYAIPWSQGTLGLLVAAEIRLIKVKEYMRLTYIPVKGDLQALAQGYIDSFAPKDGDKSKIPDFVEGMVYNPTEGVMMVGTYASKEEAKKKGNKINNVGWWFKPWFYQHAQTALKKGQFVEYIPTREYYHRHTRCLYWEGKLILPFGDQFWFRYLLGWLMPPKVSLLKATQGEAIRNYYHDMHVIQDMLVPLYKVGDALEWVHREMEVYPIWLCPHKLFKQPIKGQIYPEPGFEYENRQGDTEDAQMYTDVGVYYAPGCVLRGEEFDGSEAVRRMEKWLIENHGFQPQYAVSELDEKSFWRMFNGELYEECRKKYRAIGTFMSDYYKSKKGRKTEKEVREAEQAHLETAYAEAD
- complementation of the dwf1 null mutant (plant phenotype, height): showed some degree of phenotype rescue, with round, expanded leaves but unextended petioles at the rosette stage and bushy flowering stems reaching up to 40% of the height of the wild-type plant

B2: DWF1(KYR521-523DGD), full length, expressed in planta from 35S::DWF1(KYR521-523DGD) (protein)
chain: B1 chain with K521D, Y522G, R523D, D531V
- complementation of the dwf1 null mutant (plant phenotype): showed very slight phenotypic rescue

B3: DWF1(Δ518-539), full length, expressed in planta from 35S::DWF1(Δ518-539) (protein)
chain: MSDLQTPLVRPKRKKTWVDYFVKFRWIIVIFIVLPFSATFYFLIYLGDMWSESKSFEKRQKEHDENVKKVIKRLKGRDASKDGLVCTARKPWIAVGMRNVDYKRARHFEVDLGEFRNILEINKEKMTARVEPLVNMGQISRATVPMNLSLAVVAELDDLTVGGLINGYGIEGSSHIYGLFADTVEAYEIVLAGGELVRATRDNEYSDLYYAIPWSQGTLGLLVAAEIRLIKVKEYMRLTYIPVKGDLQALAQGYIDSFAPKDGDKSKIPDFVEGMVYNPTEGVMMVGTYASKEEAKKKGNKINNVGWWFKPWFYQHAQTALKKGQFVEYIPTREYYHRHTRCLYWEGKLILPFGDQFWFRYLLGWLMPPKVSLLKATQGEAIRNYYHDMHVIQDMLVPLYKVGDALEWVHREMEVYPIWLCPHKLFKQPIKGQIYPEPGFEYENRQGDTEDAQMYTDVGVYYAPGCVLRGEEFDGSEAVRRMEKWLIENHGFQPQYAVSELDEKSFWRMFNGELYEEKTEKEVREAEQAHLETAYAEAD
- complementation of the dwf1 null mutant (plant phenotype): grew like the uncomplemented dwf1 mutants
